Reference: paper PMC8996148, “Crystal structure of the ternary complex of Leishmania major pteridine reductase 1 with the cofactor NADP^+/NADPH and the substrate folic acid” (Acta Crystallographica. Section F, Structural Biology …, 2022)

Biological target: the molecule itself
Experiment: crystal structure; pre-formed crystals of the native enzyme (sitting drop, 293 K, 12% PEG 4600, 100 mM sodium acetate pH 5.5, 120-160 mM calcium acetate) soaked with 2 mM folate for 15 min; space group P212121, four copies per asymmetric unit; 1.81 Å

B1: Leishmania major pteridine reductase 1 (enzyme)
chain: MTAPTVPVALVTGAAKRLGRSIAEGLHAEGYAVCLHYHRSAAEANALSATLNARRPNSAITVQADLSNVATAPVSGADGSAPVTLFTRCAELVAACYTHWGRCDVLVNNASSFYPTPLLRNDEDGHEPCVGDREAMETATADLFGSNAIAPYFLIKAFAHRVAGTPAKHRGTNYSIINMVDAMTNQPLLGYTIYTMAKGALEGLTRSAALELAPLQIRVNGVGPGLSVLVDDMPPAVWEGHRSKVPLYQRDSSAAEVSDVVIFLCSSKAKYITGTCVKVDGGYSLTRA
notes: Pteridine reductase 1, Leishmania major, UniProtKB Q01782; codon-optimized synthetic DNA in pET-15b; also called LmPTR1; PTR1
  stoichiometry N: 4
